Where “and” joins values, the source holds several entries; their conditions need not be identical. Equal values may be shown once.
B1: SC6.2.35 (antibody, V domains shown)
VH: QVQMQQSGAELMKPGASVKLSCKATGYTFTGYWIEWVKQRPGHGLEWIGEILPGSGRSNSNEKFKGKATFTADTSSNTAYMQLSSLTTEDSAIYYCARGKLSWGQGTLVTVSA
VL: DIVLTQSPASLAVSLGQRATISCRASESVDSFGNSFMHWYQQKPGQPPKLLIYAASNLGSGVPARFSGSGSGTDFSLNIHPVEEDDSAMYFCQQSKEVPRTFGGGSRLEIKR
B2: SC6.41 (antibody, V domains shown)
VH: EVQLQQSGAESVRSGASVKLSCTASGLNIKDYYMHWVNLRPEQGLEWIGWIDPENGDTEYAPEFQGKATMTADTSSNTAYLQLSSLTSEDTAVYYCNACNYGSAYGYWGQGTTLTVSS
VL: DIVLTQATPSVPVTPGESVSISCRSSKSLLHTKGDTYLYWFLQRPGQSPQLLIYRMSNLASGVPDRFSGSGSGTVFTLRISRVEAEDVGVYYCMQHLEYPFTFGSGTKLEIKR
B3: SC6.58 (antibody, V domains shown)
VH: EVKLLESGGGLVQPGGSLKLSCAASGFDFSRYWMSWVRQAPGKGLEWIGDLNPDSSAINYTPSLKDKFIISRDNAKNTLYLQMSKVRSEDTALYYCTLITTLVPYTMDFWGQGTSVTVSS
VL: ETTVTQSPASLSMAIGEKVTIRCITNTDIDDDMNWYQQKPGEPPKLLISEGNGLRPGVPSRFSSSGYGTDFVFTIENMLSEDVADYYCLQSDNLPLTFGSGTKLEIK
B4: SC6.24 (antibody, V domains shown)
VH: QVQLQQSGPEVVRPGVSVKISCKGSGYTFTDYAVHWVKLSHAKSLEWIGVISTYNDYTYNNQDFKGKATMTVDKSSSTAYMELARLTSEDSAIYYCARGNSYFYALDYWGQGTSVTVSS
VL: DIVLTQSPASLAVSLGQRATISCRASESVDSYGKSFMHWYQQRPGQPPKLLIYRASNLESGIPARFSGSGSRTDFTLTINPVEADDVATYYCQQSNEDPWTFGGGTKLEIK
B5: SC6.21 (antibody, V domains shown)
VH: SDVQLQESGPGLVKPSQTLSLTCSVPDYSITSDYHWHWIRQFPGNKLEWMGYISSRGSTNYNPSLKNRISITHDTSENQFFLKLTSVTTEDSATYYCAGLSQLALDYWGQGTTLTVSS
VL: DIVMSQSPSSLAVSVGEKVTLSCKSSQSLLYSSTQNNYLAWYQQTPGQSPKLLIYWASTRESGVPDRFTGSGSGTDFTLTISSVKAEDLAVYYCQQYYSYPWTFGGGTKLEIK
B6: SC6.23 (antibody, V domains shown)
VH: QVTLKESGPGILKPSQTLSLTCSFSGFSLSTSNMGVGWIRQPSGKGLEWLAHIWWDDDKYYNPSLKSQLTISKDTSRNQVFLKITSVDTEDTATYYCVRSNYGYAWFAYWGQGTLVTVSA
VL: DIKMTQSPSSMYASLGERVTITCKASQDIYPYLNWFQQKPGKSPKTLIYRTNRLLDGVPSRFSGSGSGQDYSLTISSLDYEDMGIYYCLQYDEFPLTFGAGTKLELK

What was measured:
[1] = target: human PTK7 on non-engineered cells (human) (UniProt Q13308); test: cell-based or functional assay
[2] = target: human PTK7 on non-engineered cells (human), Q13308; test: cell-based or functional assay

Binder	EC50, saporin (Fab-ZAP) cell killing, G401 Cells [1]	EC50, saporin (Fab-ZAP) cell killing, HEK293T Cells [1]	elimination of BR13 and BR64 breast NTX tumor cells, antibody at 0.2 nM with Fab-ZAP [1]	EC50, saporin (Fab-ZAP) cell killing, G401 Cells [2]	EC50, saporin (Fab-ZAP) cell killing, HEK293T Cells [2]
B1	1.1 pM	0.45 pM	70% and 80%	–	–
B2	–	–	–	2.6 pM	5.7 pM
B3	–	–	–	35.1 pM	86.8 pM
B4	–	–	–	6.7 pM	11 pM
B5	–	–	–	200 pM	–
B6	–	–	–	2.6 pM	3 pM
